Experimental data as given in the supplement of paper PMC9170038.

Test system: K4 kissing-loop RNA reporter
Test: apparent KD of K4 kissing-loop reporter; higher = weaker reporter binding
Conditions: Eterna round: R107
Protocol: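 RNA-MaP round R107: designed RNA switches with theophylline, tryptophan, arginine or FMN aptamers are transcribed on-chip within common flanks. They are titrated with a labelled K4 kissing-loop RNA reporter in RNA-MaP buffer (100 mM Tris pH 7.5, 80 mM KCl, 4 mM MgCl2), without ligand or with the indicated ligand. Median apparent KD per design.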

[1] = input ligand: theophylline 20 uM
[2] = input ligand: tryptophan 2.4 mM
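Further: bound reporter read as fluorescence of individual clusters on recovered sequencing chips by microscopy, with normalized cluster intensities fitted with a binding model.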

| Sequence | apparent KD of K4 kissing-loop reporter (input ligand: FMN 200 uM) [nM] | apparent KD of K4 kissing-loop reporter (input ligand: arginine 13.2 mM) [nM] | apparent KD of K4 kissing-loop reporter (input ligand: none) [nM] | apparent KD of K4 kissing-loop reporter [1] [nM] | apparent KD of K4 kissing-loop reporter [2] [nM] |
| --- | --- | --- | --- | --- | --- |
| GUAUCGCUAGGAGGAUAUUUCGUUUUUCAUAGCAAUGGCUAUGCGGAGUGAUGUUCCGAUUUACCGGAAGAAGGCCUAGUGAUAC [FMN B 26] | 109 | 172 | 202 | 205 | 165 |
| CCAUCGCUAUUCGAUACCAGUCAUAAAAUCUUUGGUUUAAUAAAGGAGUGAUGUUCCCAAGACCCUUGGCAGCGAAUAGUGAUGG [Theophylline B K4 8] | 186 | 185 | 176 | 197 | 190 |
| CUUGUACAAGUGAUGUUUGUUAUAUCCGAAGGAGCGUCGUAAUAGACAGGUAGGUCGCGGAGUAAGAUAGUUUUUUUAAUAUCAU [JR_Nu_SSArginiA_Sub029] | 435 | 338 | 556 | 462 | 288 |
| CAUACGCAUGGAGGAUAUGAGAUUUCUCAUAUUAUUUAAUAUUCUCAGUGAUGUUGAGAAUUUAACUCAGAAGGCCAUGUGUAUG [Ex FMN B 5] | 316 | 149 | 156 | 154 | 152 |
| AGCAGUGAUGUUGCAUUUAUAAAGACCGAUACCAGUAUCGAUAGAUACCCUUGGCAGCGGAUUUCCGCAACGACUAGGAAACUAG [Ex Theophylline A K4 13] | 404 | 423 | 399 | 466 | 270 |
| UGCUUUAUCAGAAGGAGCGCGUUGGUCAUAAUAAUAAUCAGUGAUGUUGAUAUAUGAGGAUUGCAGGUAGGUCGCUGAUAUAGCU [KL-XARG-B1] | 323 | 210 | 390 | 255 | 229 |
| AAAUUCUUUUUUUUAUUUAACUUUUCAGAAGGAGCGUGGUAGUACACAGGUAGGUCGCUGAAUUUUGGACUAGUGAUGUUAGUUA [JR_SSArginiA_Sub007] | 156 | 154 | 158 | 228 | 153 |
| CUGAUGCUGAUGCGGUGGCCGGUGGUCGUGCGAGGACCGGUACGGCCGCCACUCGCAUGAGUGAUGUUCAUGUGUCGUCGUCGUC [#04 K4 Tryptophan A Exclusion] | 204 | 133 | 169 | 164 | 172 |
| CUAUCCCGCCGUGUAUGUAGUAUACGGUGCCGAGGACCGGUACGGCCGCCACUCGAUAAGCUUUGUCGGAGUGAUGUUCCGACCG [Soleesen] | 277 | 181 | 213 | 263 | 265 |
| UCGAAGGAUGGAAGGAGCGCUCGUCAGCCCUGCGAGUGAUGUUCGUGGGUAAAUAGUCGCGAGCAGGUAGGUCGCCAUCUUGAGC [Ritera] | 128 | 111 | 130 | 111 | 116 |
| CUGGUUCAGUGAUGUUGGAAGGUUUAGGUGAAGGAUAUAUUGCAUAAUAGAAGGUCACGGCCAUGCAAUUAUUAACGUAGCCUGU [theeternabot_exclusion_KL_FMN_A_3] | 279 | 114 | 172 | 126 | 158 |
| UAUACUAGACAAGAGAGAAUUCUCUCAAGAGAGGAUAUCCGAAUUCGGAGAAGGCUCUCUCAGUGAUGUUGGGUAUAGUCUAGAA [AK7 SS FMN A] | 260 | 222 | 323 | 389 | 299 |
| UGUGUGUAGGGAAGGAGCGCCGAGAGAAGAAGAAAAGAGUGAUGUUCAAGACAAUAAAGACGGCAGGUAGGUCGCCCUGUGUGUG [Default title] | 756 | 706 | 516 | 517 | 267 |
| AAUAACUAGUAUUUUUUUAAUAAUACAGAUACCAGUGAUAAUAAACACCCUUGGCAGCUGAUCGAGUGAUGUUCGUUUAUUUUAA [JR_SSTheophyA_Sub003] | 57.3 | 83.3 | 64 | 112 | 54 |
| UGCAGUGAUGUUGCUAUUUGUCUUGAUUAACGAGGACCGGUACGGCCGCCACUCGAUUUCUCUCUAAUCGAGUAUGUUGUUUAGU [#19 K4 Tryptophan A Exclusion] | 153 | 184 | 162 | 203 | 114 |
| UUUGGUUUCUCGGCCGCCACUCGUUGUCUAUGGGCUUCAGGGAUAUAGUGAUGUUAUGUAUAGAAGAGGACCGGGAGAAGGUUUU [ExTryptoB.Dv] | 427 | 77.9 | 683 | 42.3 | 161 |
| AUUAAUAACAGAGGAUAUGCAUUUUUAUUAUUUUUUAUUAUUAUAUGCAGUGAUGUUGCAUAUUAAGCAGAAGGCUGAUUUAUUU [JR_SSFMNB_Sub013] | 117 | 105 | 79 | 110 | 102 |
| GGGAAGAAGGCGGCCGCCACUGCAGAAGAGACAGAGAGGGUAGAAGAGGAGUGAUGUUCCAAGAACAGGACCGGGCCAAGAAGGG [whbob_SS_Tryp_B_t30] | 226 | 172 | 226 | 237 | 137 |
